According to patent US20080201790A1, “Method and product for regulating cell responsiveness to external signals” (priority 1993, published 2008):

Assays:
[1] = system: GST-Ras^V12; experiment: Binding of COS cell-expressed MEKK1 proteins to GST-Ras^V12 agarose; settings: COS cell lysates, immunoblot
From the text: COS cells were transiently transfected by the DEAE-dextran protocol as generally described in Example 3. Cos cells were transfected with: (1) p-MEKK1 containing a nucleic acid molecule encoding MEKK1 as described in Lange-Carter et al. (Science 260:315-319, […]); (2) p-MEKKNH2 containing a nucleic acid molecule that encodes a 858 base pair Pvull(682)-Ncol(1541) restriction digest fragment of the amino terminus of MEKK1 ligated into pCMV5; (3) p-MEKKCOOH containing a nucleic acid molecule that encodes a 1435 base pair Ncol(1541)-Sspl(2976) restriction digest fragment that includes the entire kinase domain of MEKK1 ligated into pCMV5; (4) pCMV5 without insert; or (5) p-C4Raf containing a nucleic acid molecule that encodes the amino terminus of Raf-1 ligated into pCMV5. COS cells expressing the various MEKK1 proteins were […] COS cells expressing the various MEKK1 proteins were lysed in EB (1% Triton X-100, 10 mM Tris HCl [pH 7.4], 5 mM EDTA, 50 mM NaCl, 50 mM NaF, 0.1% bovine serum albumin, 0.2 U/ml aprotinin, 1 mM phenylmethylsulfonyl fluoride and 2 mM Na3 VO4). The lysates were separated into two equal parts for separate binding reactions. Half of the lysate was incubated with GST agarose (1.5 μg) while half of the lysate was incubated with GST-Ras^V12 agarose (1.5 μg) (purchased from UBI) for 1 hr at 4° C. The GST-Ras^V12 was preincubated at 30° C. for 30 min with 1 mM nucleotide (GDP or GTPγS). The nucleotide binding reaction was stopped by adding MgCl2 to a final concentration of 20 mM. After the 1 hr binding reaction the agarose beads were pelleted at 2000 rpm for 2 min and washed 3 times with PBS+1.0% Triton X-100. The washed agarose beads were boiled in Laemmli SDS sample buffer and the proteins resolved by SDS polyacrylamide gel electrophoresis. Proteins were transferred onto nitrocellulose for immunoblotting with antibodies specific for an NH2 terminal fusion protein (described in Example 1) or a COOH terminal peptide (described in Example 1).

[2] = system: MAPK; experiment: MAPK activity in COS cells transfected with MEKK or Raf (Mono Q FPLC fractions); type: cell-based; settings: overexpression in COS1 cells, deprived of serum, no added growth factor
Protocol: COS cells in 100-mm culture dishes were transfected with either the pCVMV5 expression vector alone (1 μg: control) or the pCVMV5 MEKK construct (1 μg: MEKK). After 48 hours, the cells were placed in serum-free medium containing bovine serum albumin (0.1 percent) for 16 to 18 hours to induce quiescence. […] After centrifugation for 10 minutes at maximum speed in a microfuge, COS cell lysates containing 0.5 to 1 mg of soluble protein were subjected to FPLC on a MONO Q column, and eluted fractions were assayed for MAPK activity according to the method described in Heasley et al., p. 545, 1992, Mol. Biol. Cell, Vol. 3.
COS cells were prepared using the method described in Example 3. […] FPLC MONO Q ion-exchange column fractions were prepared as described in Example 3 and assayed for MAPK activity according to the method described in Heasley et al., ibid.

[3] = system: p38 MAPK; experiment: Tyrosine phosphorylation of p38 MAPK in COS cells transfected with MEKK 1 or MEKK 3; type: cell-based; settings: forty-eight hours after transfection
Protocol: (§1) COS cells were transfected with the expression plasmid pCVM5 ligated to cDNA clones encoding either MEKK 1 or MEKK 3 protein, or a control pCVM5 plasmid lacking MEKK cDNA inserts. Forty-eight hours after transfection, the COS cells were lysed and the lysate fractionated on a Mono Q FPLC column using conditions described in Example 4. The fractions were analyzed for tyrosine phosphorylation of MAP kinase-like enzymes using the kinase assay described in Example 4.

[4] = system: MEK-1; experiment: Phosphorylation of catalytically inactive MEK-1 by Mono Q fractions of MEKK-transfected COS cells; type: biochemical, mouse
Protocol: A cDNA encoding MEK-1 was obtained from mouse B cell cDNA templates with the polymerase chain reaction and oligodeoxynucleotide primers corresponding to portions of the 5′ coding region and 3′ untranslated region of MEK-1. […] Lysates from COS cells transfected with MEKK or mock-transfected (control) were subjected to FPLC on a Mono Q column as described above. […] Reactions were stopped by the addition of 5×SDS sample buffer (10 μl), 1×SDS buffer contains 2 percent SDS, 5 percent glycerol, 62.5 mM tris-HCl (pH 6.8), 5 percent β-mercaptoethanol, and 0.001 percent bromophenol blue. The samples were boiled for 3 minutes and subjected to SDS-PAGE and autoradiography.
Phosphorylation of kinase MEK-1 and MEKK was visable after 5 minutes and maximal after about 20 minutes. The time-dependent increase in MEKK phosphorylation correlated with a decreased mobility of the MEKK protein during SDS-PAGE. […] The slowly migrating species of MEKK were also detected by immunoblotting. Thus, expression of MEKK appears to activate MAPK by activating MEK.

[5] = system: p42 and p44 forms of MAPK; experiment: Phosphorylation of p42 and p44 MAPK in COS cells transfected with MEKK 1 or MEKK 3; type: cell-based; settings: forty-eight hours after transfection
Protocol: as §1

[6] = fraction 22, 0.15 μg catalytically inactive MEK-1

B1: MEKK 1: MEK kinase 1 protein, SEQ ID No. 2 / 4 (protein)
chain: MVTAVPAVFSKLVTMLNASGSTHFTRMRRRLMAIADEVEIAEVIQLGVEDTVDGHQDSLQAVAPTSCLENSSLEHTVHREKTGKGLSATRLSASSEDISDRLAGVSVGLPSSTTTEQPKPAVQTKGRPHSQCLNSSPLSHAQLMFPAPSAPCSSAPSVPDISKHRPQAFVPCKIPSASPQTQRKFSLQFQRNCSEHRDSDQLSPVFTQSRPPPSSNIHRPKPSRPVPGSTSKLGDATKSSMTLDLGSASRCDDSFGGGGNSGNAVIPSDETVFTPVEDKCRLDVNTELNSSIEDLLEASMPSSDTTVTFKSEVAVLSPEKAENDDTYKDDVNHNQKCKEKMEAEEEEALAIAMAMSASQDALPIVPQLQVENGEDIIIIQQDTPETLPGHTKAKQPYREDAEWLKGQQIGLGAFSSCYQAQDVGTGTLMAVKQVTYVRNTSSEQEEVVEALREEIRMMGHLNHPNIIRMLGATCEKSNYNLFIEWMAGGSVAHLLSKYGAFKESVVINYTEQLLRGLSYLHENQIIHRDVKGANLLIDSTGQRLRIADFGAAARLASKGTGAGEFQGQLLGTIAFMAPEVLRGQQYGRSCDVWSVGCAIIEMACAKPPWNAEKHSNHLALIFKIASATTAPSIPSHLSPGLRDVAVRCLELQPQDRPPSRELLKHPVFRTTW
binding to GST-Ras^V12(GTPγS) relative to GST-Ras^V12(GDP) [1]: at least 5 fold | binding to GST-Ras^V12 (in words) [1]: capable of binding GST-Ras^V12 in a GTP dependent manner | MAPK activity relative to control cells transfected with plasmid lacking a MEKK 1 cDNA insert [2]: four to five times greater | phosphorylation of p38 MAPK [3]: only induces weak phosphorylation of p38 MAPK | phosphorylation of MEK-1 ([4]; Mono Q fractions of transfected COS cells): capable of phosphorylating MEK-1 | time at which phosphorylation of kinase MEK-1 and MEKK was visible [4, 6]: 5 min | time of maximal phosphorylation of kinase MEK-1 and MEKK [4, 6]: about 20 minutes | phosphorylation of p42 and p44 MAPK [5]: does induce phosphorylation of p42 and p44 MAPK
